Data reported in patent US20260265354A1 (JIANGSU MABWELL HEALTH PHARMACEUTICAL R AND D, published 2026).
Changes are numbered by the printed parent chain.

T1: Nectin-1 (UniProt Q15223 31-334, limits assumed)
T1 construct: Bought recombinant protein; also called CD111; PVRL-1
T1 sequence (looked up): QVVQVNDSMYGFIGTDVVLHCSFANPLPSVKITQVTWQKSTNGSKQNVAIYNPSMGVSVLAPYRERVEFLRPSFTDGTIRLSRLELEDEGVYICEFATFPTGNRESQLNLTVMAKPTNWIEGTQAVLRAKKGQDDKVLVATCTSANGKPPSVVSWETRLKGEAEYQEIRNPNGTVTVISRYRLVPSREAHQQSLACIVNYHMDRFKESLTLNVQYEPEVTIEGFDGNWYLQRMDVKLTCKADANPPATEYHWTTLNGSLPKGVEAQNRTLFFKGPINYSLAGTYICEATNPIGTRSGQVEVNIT

T2: Nectin-like-3 (UniProt Q8N3J6 25-367, limits assumed)
T2 construct: Bought recombinant protein; also called CADM2; IgSF4D
T2 sequence (looked up): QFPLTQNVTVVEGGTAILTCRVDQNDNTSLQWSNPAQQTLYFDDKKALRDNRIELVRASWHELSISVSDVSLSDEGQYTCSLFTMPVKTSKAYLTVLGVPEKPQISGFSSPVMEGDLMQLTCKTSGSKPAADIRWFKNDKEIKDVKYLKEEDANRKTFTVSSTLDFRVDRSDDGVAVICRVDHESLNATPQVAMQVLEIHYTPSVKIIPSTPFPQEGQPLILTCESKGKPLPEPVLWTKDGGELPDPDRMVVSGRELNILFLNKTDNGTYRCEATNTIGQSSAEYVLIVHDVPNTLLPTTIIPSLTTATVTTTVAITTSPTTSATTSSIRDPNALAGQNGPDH

T3: Nectin-like-1 (UniProt Q8N126 25-330, limits assumed)
T3 construct: Bought recombinant protein; also called CADM3; IgSF4B
T3 sequence (looked up): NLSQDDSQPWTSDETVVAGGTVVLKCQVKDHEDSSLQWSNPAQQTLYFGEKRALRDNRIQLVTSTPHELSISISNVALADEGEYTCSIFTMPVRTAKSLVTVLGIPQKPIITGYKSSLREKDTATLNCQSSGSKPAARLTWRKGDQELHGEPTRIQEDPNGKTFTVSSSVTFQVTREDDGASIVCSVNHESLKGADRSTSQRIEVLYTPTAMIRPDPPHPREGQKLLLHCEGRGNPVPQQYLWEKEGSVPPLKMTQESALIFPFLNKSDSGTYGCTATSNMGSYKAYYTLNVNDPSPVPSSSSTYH

T4: Nectin-like-4 (UniProt Q8NFZ8 21-324, limits assumed)
T4 construct: Bought recombinant protein; also called CADM4; IgSF4C
T4 sequence (looked up): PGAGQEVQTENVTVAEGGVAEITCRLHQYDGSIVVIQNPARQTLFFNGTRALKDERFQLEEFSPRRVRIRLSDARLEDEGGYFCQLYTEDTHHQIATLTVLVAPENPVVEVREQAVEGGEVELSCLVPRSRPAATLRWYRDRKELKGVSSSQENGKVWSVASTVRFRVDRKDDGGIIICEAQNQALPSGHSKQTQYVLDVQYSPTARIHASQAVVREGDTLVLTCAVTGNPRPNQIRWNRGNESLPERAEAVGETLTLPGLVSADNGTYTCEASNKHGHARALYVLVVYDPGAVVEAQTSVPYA

T5: Nectin-2 (UniProt Q92692 32-360, limits assumed)
T5 construct: Bought recombinant protein; also called CD112; PVRL-2
T5 sequence (looked up): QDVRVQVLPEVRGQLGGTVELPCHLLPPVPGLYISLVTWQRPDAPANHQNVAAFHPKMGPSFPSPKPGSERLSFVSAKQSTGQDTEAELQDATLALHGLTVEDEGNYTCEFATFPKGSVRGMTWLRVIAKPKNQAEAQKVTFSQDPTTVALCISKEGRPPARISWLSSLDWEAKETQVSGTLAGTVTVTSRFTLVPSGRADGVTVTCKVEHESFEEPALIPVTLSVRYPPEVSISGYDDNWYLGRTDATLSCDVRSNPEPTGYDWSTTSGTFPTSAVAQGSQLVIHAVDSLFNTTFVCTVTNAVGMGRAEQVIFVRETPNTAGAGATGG

T6: Nectin-like-5 (UniProt P15151 21-343)
T6 construct: Bought recombinant protein; also called CD155; PVR
T6 sequence (looked up): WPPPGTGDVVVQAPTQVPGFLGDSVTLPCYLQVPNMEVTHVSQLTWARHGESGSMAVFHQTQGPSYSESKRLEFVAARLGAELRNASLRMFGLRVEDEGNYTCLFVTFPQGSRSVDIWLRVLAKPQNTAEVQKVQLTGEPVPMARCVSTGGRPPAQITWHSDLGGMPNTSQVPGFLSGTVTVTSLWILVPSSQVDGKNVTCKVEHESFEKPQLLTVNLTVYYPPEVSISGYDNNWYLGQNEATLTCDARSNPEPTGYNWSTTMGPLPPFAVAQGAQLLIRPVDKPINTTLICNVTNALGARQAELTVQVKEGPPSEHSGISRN

B1: Antibody R012 (antibody, V domains shown)
VH: SKSVEESGGRLVTPGTPLTLTCTVSGFSLSTYAMSWVRQAPGKGLEYIGIISGRGTTYYASWLKGRFTISKTSTTVDLKITSPTTEDTATYFCARDAGISDVYTGYFNLWGQGTLVTVSS
VL: QPVLAQLPSASAALGASAKLTCTLSSAHRTYTIAWYQQQQGEAPRYLMMLKSDGSYTKGTGVPDRFSGSSSGADRYLIISSVQAADEADYYCGADDSGGYVFGGGTQLTVTG
notes: Rabbit monoclonal antibody from phage display; also called Nectin-4 rabbit monoclonal antibody R012; rabbit antibody R012
B2: Antibody R036 (antibody, V domains shown)
VH: SQSVEESGGRLVTPGTPLTLTCTVSGFSLSSYAMSWVRQAPGKGLEYIGIIGGRGTTYYAIWAKGRFTISKTSTTVDLKITSPTTEDTATYFCARDAGTTYVGTTYVATGYFNLWGQGTLVTVSS
VL: B1 VL with A5T, L7P, R29K, M49I, K58R, A85D
notes: Rabbit monoclonal antibody from phage display; also called Nectin-4 rabbit monoclonal antibody R036; rabbit antibody R036
B3: Antibody MM11 (antibody, mouse IgG1, kappa, V domains shown)
VH: DVQLQESGPGLVKPSQSLSLTCSVTGYSITSNFYWNWIRQFPGNRLEWMGYISYDGSNNYNPSLKNRISISRDTSKNQFFLKLNSVTTEDTATYYCVRADYWGQGTLVTVSA
VL: DTVMTQTPLSLPVSLGDQASISCRSSQSLESSDGHAYLNWYLQKPGQSPQLLIYRVSNRFSGVLHRFSGSGSGTDFTLKISRVEAEDLGVYFCLQFTHVPFTFGSGTKLEIKR
notes: Mouse monoclonal antibody from hybridoma; also called Nectin-4 mouse monoclonal antibody MM11; mouse antibody MM11

These binders were tested against T1, Nectin-1 (assay: ELISA, coated antigen).
B1: no binding (tested: 10000 ng/ml).
B2: no binding (tested: 10000 ng/ml).
B3: no binding (tested: 10000 ng/ml).

These binders were tested against T7, Nectin-3 (UniProt Q9NQS3 58-404, limits assumed) (assay: ELISA, coated antigen).
T7 construct: Bought recombinant protein; also called CD113; PVRL-3
T7 sequence (Q9NQS3 58-404 limits assumed): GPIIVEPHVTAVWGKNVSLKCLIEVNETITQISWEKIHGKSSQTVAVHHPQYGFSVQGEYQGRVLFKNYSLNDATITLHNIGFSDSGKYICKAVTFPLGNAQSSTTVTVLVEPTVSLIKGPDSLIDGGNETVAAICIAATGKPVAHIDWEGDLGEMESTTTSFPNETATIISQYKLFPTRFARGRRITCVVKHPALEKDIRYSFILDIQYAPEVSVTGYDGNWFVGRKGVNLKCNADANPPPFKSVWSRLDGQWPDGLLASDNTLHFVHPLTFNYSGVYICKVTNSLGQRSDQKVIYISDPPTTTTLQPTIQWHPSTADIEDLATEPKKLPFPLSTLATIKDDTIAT
B1: no binding (tested: 10000 ng/ml).
B2: no binding (tested: 10000 ng/ml).
B3: no binding (tested: 10000 ng/ml).

These binders were tested against T2, Nectin-like-3 (assay: ELISA, coated antigen).
B1: no binding (tested: 10000 ng/ml).
B2: no binding (tested: 10000 ng/ml).
B3: no binding (tested: 10000 ng/ml).

Each binder was assayed against T3, Nectin-like-1 (assay: ELISA, coated antigen).
B1: no binding (tested: 10000 ng/ml).
B2: no binding (tested: 10000 ng/ml).
B3: no binding (tested: 10000 ng/ml).

What follows are binders tested against T4, Nectin-like-4 (assay: ELISA, coated antigen).
B1: no binding (tested: 10000 ng/ml).
B2: no binding (tested: 10000 ng/ml).
B3: no binding (tested: 10000 ng/ml).

What follows are binders tested against T5, Nectin-2 (assay: ELISA, coated antigen).
B1: no binding (tested: 10000 ng/ml).
B2: no binding (tested: 10000 ng/ml).
B3: no binding (tested: 10000 ng/ml).

Each binder was assayed against T6, Nectin-like-5 (assay: ELISA, coated antigen).
B1: no binding (tested: 10000 ng/ml).
B2: no binding (tested: 10000 ng/ml).
B3: no binding (tested: 10000 ng/ml).
